Laboratory results from US20070192884A1.
“And” between values parts separate entries of the source, which are not always exact repeats. Identical values can stand only once.

Assays:
[1] = biological target: TAT-038 as carried by human tumor cell lines (H1299, PC-3, K562, HL-60) (human) (UniProt P15144); assay: flow cytometry, PC3 human tumor cells
[2] = biological target: TAT-038 as carried by human tumor cell lines (H1299, PC-3, K562, HL-60) (human) (UniProt P15144); assay: flow cytometry, K562 human tumor cells
[3] = biological target: TAT-038 as carried by human tumor cell lines (H1299, PC-3, K562, HL-60) (human) (UniProt P15144); assay: flow cytometry, PC-3 human tumor cells
[4] = biological target: TAT-038 as carried by human tumor cell lines (H1299, PC-3, K562, HL-60) (human) (UniProt P15144); assay: flow cytometry, H1299 human tumor cells
[5] = biological target: TAT-038 as carried by human tumor cell lines (H1299, PC-3, K562, HL-60) (human) (UniProt P15144); assay: flow cytometry, HL-60 human tumor cells
[6] = biological target: TAT-038 (full-length, cloned from human placenta cDNA, expressed from phCMV1-TAT-038 in stable 293G and BaF3 cells) (human) (UniProt P15144); assay: flow cytometry, 293G cells stably expressing TAT-038 (293G-ANPEP)
[7] = biological target: TAT-038 (full-length, cloned from human placenta cDNA, expressed from phCMV1-TAT-038 in stable 293G and BaF3 cells) (human) (UniProt P15144); assay: flow cytometry, BaF3 cells stably expressing TAT-038 (BAF3 ANPEP)

- geometric mean fluorescence [1]: 125
- geometric mean fluorescence [2]: 7 and 9
- geometric mean fluorescence [3]: 47
- geometric mean fluorescence [4]: 4
- geometric mean fluorescence [5]: 23
- geometric mean fluorescence [6]: 221
- geometric mean fluorescence [7]: 59.3
Substance: Mouse monoclonal antibody WM15 (BD Pharmingen, cat#555393)
